Test: soluble on expression in E. coli; label from the status in PepcDB or PDB records

| Sequence | soluble on expression in E. coli |
| --- | --- |
| MRDQMLPSIILFDGVCNFCNYWVQFIIKRDPQATFQFASLQSEVGQELLEKHSIDRSTDSVVLIMEGQAFVCSDAVLKIVAQLDSPIRWLKWAVIFPRFLRDFIYRIVARNRYKWFGKRDECQIPTKEQRSRFLLEHHHHHH | soluble |
| MRDVHSISAMNLRDVLSIPEVKQGQVIGKKIPATLGEDGMNVLGEPIKAKPGREFVLRPGKNSTVDEANGTLVAAVDGQMSVDKRTIHVYPVYEVPGDLTMKHGNISFIGNVIIRGHVPDGFVVKAGGDIRVFGTVEGATLEAGGSIFVGAGIVGQNRGCIRAEGGLHTTFINQAKVEVGGDIEVVQSILHSTCTAGGKIICTRGKGNIVGGALSAEDHIYAKEIGNSMHTKTSLYIGAKEKWVTKEKQLAKEYKTTEEELKKLSLLLQKFQELEKENGLTANGRVQRLRVKNTLVQVKEKHEQIKEQLEDVQENLTLNQAGSIVVEQTLYPNVSAHFGKYRRKIVSNHSNVKLSLVDQEIQLSSRLEHHHHHH | not soluble |
| MREIIFLVEEAEEGGFVARALGEAIFTEGETWEELKEMVRDAVRCHFGEEAPPIIRLHFVREEVLTP | soluble |
| MREWKSQDAWKQHSLRLCFGVWPGTEFLHRPRAVHRRSGVVCSQMQTEDSHPETPQVPKESLQEEKDSSPATDASFIQSQDGKTVFLDRRTERRIQRGFVLTERGPRSIWKPAGTSSQRNERVPRRAAARGGAGPPDTTPQLATVRVLVLGANHVAQRLAELLSSHSRVCGCYFVSETTDEAAIESMKKYAYALPLRSALNDDEVVRVAEWVLADYVFLVPTGETHDDGVSLKDKERLERTLAQNRVTFMDENLTGLLLENPSLIDALFRARDSLEA | not soluble |
| MREYRITAEEGHPRIDVFLAGRPEIGLSRSRIQALIDEGQVTLNGAMPKARQAVNPGDVIVVRVPDPEPMELVPEDIPLDIVYEDEDILVVNKQRGLVVHPAAGHWTGTLVHALLDKVDDLEGIGGELRPGIVHRLDKDTTGLLVVAKSERAMASLQEQIRDHMVQRVYWALVHGNSMPDTGRIEAPIGRHPRDRKRMAVNPKTGRDAVTYFRVLERYRGYALLECRLETGRTHQIRVHLSFIGHPVVGDPLYGPRKPHLGMPPQALHARQLSFRHPASGEWMEFTVDPPADMMAVVQRLREEA | soluble |
| MRFEDIGISKVDKVCLVDRLGCQENLVGTVHVTTTHIIFRAENGSKELWLATGLISSVEKGTLTAAGCMLVIRCKHFQVITLLISRDKSCQDLYETLQRAAKPVSVNVTELLAFENREPVEDVRGWRRLDWNSEMTRQGITKSQWTESNINEGYTICDTYPNKLWFPTAASTSVLLGSCKFRSRGRLPVLTYFHQQTEAALCRCAQPLTGFSARCVEDEKLMELVGKANTNSDNLFLVDTRPRVNAMVNKVQGKGFEDERNYSNMRFHFFDIENIHVMRASQARLLDAVTKCRDVTEYWKTLEASGWLKHVRSVVECSLFLAESISRGTSCVVHCSDGWDRTSQVVALCQLLLDPYYRTIHGFQVLIEKDWLGFGHKFDDRCGHVGALNDEAGKEVSPIFTQWLDCIWQIMQQKPRAFQFNERYLIEMHEHVYSCQFGTFIGNCDKDRRDLNLSKRTKSLWTWMDARHDDYMNPFYSPTAHVALLDLDTRAARFTVWTAMYNRFDNGLQPRERLEDLTMAAMEHVGVLESHVAQLRTRLAELKTQQNQQITSTNTPTNMVDSGMSSATDDLKNLSLSHPLDPLSSTLPILERATSQESGVMDSSLYYPDEALTKYSLKWQPLRGADRCSNPACRGEFSSTIERRIHCHLCGMIFCRRCLKVSADERERVCDKCKTD | not soluble |
| MRFYIKTFGCQMNENDSEAMAGLLVKEGFTPASSPEEADVVIINTCAVRRKSEEKAYSELGQVLKLKKKKKIVVGVAGCVAEKEREKFLEKGADFVLGTRAVPRVTEAVKKALEGEKVALFEDHLDEYTHELPRIRTSRHHAWVTIIHGCDRFCTYCIVPYTRGRERSRPMADILEEVKKLAEQGYREVTFLGQNVDAYGKDLKDGSSLAKLLEEASKIEGIERIWFLTSYPTDFSDELIEVIAKNPKVAKSVHLPVQSGSNRILKLMNRRYTKEEYLALLEKIRSKVPEVAISSDIIVGFPTETEEDFMETVDLVEKAQFERLNLAIYSPREGTVAWKYYKDDVPYEEKVRRMQFLMNLQKRINRKLNERYRGKTVRIIVEAQAKNGLFYGRDIRNKIIAFEGEDWMIGRFADVKVEKITAGPLYGKVVWVEKTPSPVSSSE | soluble |
| MRGENTMTPVFELKNVNYYYDHKKVLENINIKINKGEFLAIVGPNGAGKSTLLKLILGLLPLQSGEIFVEGIDFKNKKTSIKLSYVSQKANAFNSGFPASVKEVVLSGLTKTKRLFQTFNSKDNEKVIKVLERLNISDLIHKNIAELSGGQQQRVMIARALISEPAVLVLDEPTNGIDAKHVSEFYNTLDQLKQEGITIILVTHDIGVVADTATEVACLNKHLHFHGTTDEFKSLDEVEISKIYGHPVRFVDHQHNRECCN | not soluble |
| MRGFLMFTSGPFDIDFVVLWVDGSDEKWLQKRAIYSSTKQQNNAVRFRDYGIFKYWFRAVAKYAPWVHHVYLVTDEQIPNWLSIQNSKVSVIDHKSIMPEDALPTFNSSAIELNIANIPGLSEHFVYFNDDMFLNRQVTPMDFFSEDGLPKDSAVQNAIMPVEDFDHMTANNVMLINQNFNKYQVLRRHPFRFFNFRYGFLNVLSICLLPWPRFTRFQDPHVPISFRKSVFEKVLNLHRDAWNETSHNRFRNRNDNTIWLIRYYQLVTAQFNPRTPFVGKKYNIGEMKKIVNDINTGKHKMICINDQNVSMAEFDNLTKQLRSTFRSKLPQKSEFEKMAGDPLEHHHHHH | not soluble |
| MRGKRVVLPDKDHQACGLFGVIDRSGRRFSGEMAINAMINMKVRGNGLGGGFAAYGIYPEYKDYYALHVMFQDWDMEAKHRVDEFLDANFDVVYAEEIPVNPEANVASPPLFWRYFVSPNKKGDEKKLSDDDYVVKKVMEINTKINNAYVVSSGKDMGVFKGVGFPEDIAEYFMLAEEYKGYMWTAHSRFPTNTPGWWGGAHPFCILDWTVVHNGEISSYGTNKRYLEMFGYYCTLLTDTEVMAYAVDLLMRKQGLPIEIVSKIFAPPMWDHIDIMDEKKKKFYTALRMNYGPLLINGPWTIVVARHGEMFGITDRIRLRPITSGEKGDLLFVSSEESAIRAVCPDLDRVYTPMGGEPVIGRLKSREKELAKQLSEVE | not soluble |
| MRGKVYLVGAGFGGPEHLTLKALRVLEVAEVVLHDRLVHPGVLALAKGELVPVGKEGYGGKTPQEAITARLIALAREGRVVARLKGGDPMVFGRGGEEALALRRAGIPFEVVPGVTSAVGALSALGLPLTHRGLARSFAVATGHDPALPLPRADTLVLLMPLHTLGGLKERLLERFPPETPLALLARVGWPGEAVRLGRVEDLPGLGEGLPSPALLVVGKVVGLYGELLPKDHGL | soluble |
| MRGSHHHHHHGMASMSVSTASTEMSVRKIAAHMKSNPNAKVIFMVGAGISTSCGIPDFRSPGTGLYHNLARLKLPYPEAVFDVDFFQSDPLPFYTLAKELYPGNFRPSKFHYLLKLFQDKDVLKRVYTQNIDTLERQAGVKDDLIIEAHGSFAHCHCIGCGKVYPPQVFKSKLAEHPIKDFVKCDVCGELVKPAIVFFGEDLPDSFSETWLNDSEWLREKITTSGKHPQQPLVIVVGTSLAVYPFASLPEEIPRKVKRVLCNLETVGDFKANKRPTDLIVHQYSDEFAEQLVEELGWQEDFEKILTAQ | soluble |
| MRGSHHHHHHGMASMTGGNNMGRDLYDDDDKDPGRRMMHNSNADDAALTTDVVVVGGGPVGLMLAGELRAGGVGALVLEKLVEPVGHDRAGALHIRTVETLDLRGLLDRFLEGTQVAKGLPFAGIFTQGLDFGLVDTRHPYTGLVPQSRTEALLAEHAREAGAEIPRGHEVTRLRQDAEAVEVTVAGPSGPYPVRARYGVGCDGGRSTVRRLAADRFPGTEATVRALIGYVTTPEREVPRRWERTPDGILVLAFPPEGGLGPGWSSSSTGHSPAADEGPVTLEDLGAAVARVRGTPLTLTEPVSWLSRFGDASRQAKRYRSGRVLLAGDAAHVHFPIGGQGLNTGLQDAVNLGWKLAARVRGWGSEELLDTYHDERHPVAERVLLNTRAQLALMRPDEQHTTPLRGFVEELLGTDEVNRYFTGMITGTDVRYATFAPAASARPHPWPGRFAGGLVLSRPSGEPVPVAELLRSARPLLLDLAGRADLREATRPWSDRVSVVAGEATVEPPAQALLVRPDGYVAWAGSPAATADELRASLARWFGPPANREPVGHQERAGRRGRPLSALKPE | soluble |
| MRGSHHHHHHGMASNEFPVVLVINCGSSSIKFSVLDVATCDVLMAGIADGMNTENAFLSINGDKPINLAHSNYEDALKAIAFELEKRDLTDSVALIGHRIAHGGELFTQSVIITDEIIDNIRRVSPLAPLHNYANLSGIDAARHLFPAVRQVAVFDTSFHQTLAPEAYLYGLPWEYFSSLGVRRYGFHGTSHRYVSRRAYELLDLDEKDSGLIVAHLGNGASICAVRNGQSVDTSMGMTPLEGLMMGTRSGDVDFGAMAWIAKETGQTLSDLERVVNKESGLLGISGLSSDLRVLEKAWHEGHERARLAIKTFVHRIARHIAGHAASLHRLDGIIFTGGIGENSVLIRQLVIEHLGVLGLTLDVEMNKQPNSHGERIISANPSQVICAVIPTNEEKMIALDAIHLGNVKAPVEFA | soluble |
| MRGSHHHHHHTDPALRASKVTPQPKIGFVSLGCPKNLVDSERILTELRTEGYDVVPSYDDADMVIVNTCGFIDSAVQESLEAIGEALNENGKVIVTGCLGAKEDQIREVHPKVLEITGPHSYEQVLEHVHHYVPKPKHNPFLSLVPEQGVKLTPRHYAYLKISEGCNHRCTFCIIPSMRGDLVSRPIGEVLSEAKRLVDAGVKEILVISQDTSAYGVDVKHRTGFHNGEPVKTSMVSLCEQLSKLGIWTRLHYVYPYPHVDDVIPLMAEGKILPYLDIPLQHASPRILKLMKRPGSVDRQLARIKQWREICPELTLRSTFIVGFPGETEEDFQMLLDFLKEARLDRVGCFKYSPVEGADANALPDQVPEEVKEERWNRFMQLQQQISAERLQEKVGREILVIIDEVDEEGAIGRSMADAPEIDGAVYLNGETNVKPGDILRVKVEHADEYDLWGSRVGLCGR | soluble |
| MRHLSLLLCCLLAWPARAETLVEIPTRPGVALRFLLLEPPGPPRANLILLAGGEGLLKLSAEGELGAGRGNFLVRTRQGWADMGFRVAVVDAPSDMPRGLLGDFRERAEHAADIAAVSDYLRRGAALPVWLAGTSRGTTSAAAVALNRPDAADGLLLTSSIDAGRGSLAGLPLERLAVPVLMIQHRRDECRASRPGNLGPVLDRLRADAPRELMLLDGGGSEGDPCQPWAWHGYNGIERRVLGLAGAWMLAHGRHLEHHHHHH | not soluble |
| MRHNIFYNRREFQMIDNFMQVLKLIKEKRTNNVVKKSDWDKGDLYKTLVHDKLPKQLKVHIKEDKYSVVGKVATGNYSKVPWISIYDENITKETKDGYYLVYLFHPEGEGIYLSLNQGWSKISDMFPRDKNAAKQRALTLSSELNKYITSNEFNTGRFYYAENKDSSYDLKNDYPSGYSHGSIRFKYYDLNEGFTEEDMLEDLKKFLELFNELASKVTKTSYDSLVNSIDEIQEDSEIEEIRTAQKDKTLKEVEAPKGIIPKYKKGVSKTTKNDSEIEKSNKENKLTGKVGEKLALNYFNELIDNKIDEDKKEQFRNILNDNPGSQHGHGYDLVAFDPTNTDKAVEKFIEIKTSTSSSIEEPFFMSLNEMFAMKEYKQKYLILRIFNVSGKEPQFYFIDPYANYSEFKDVDDLIDKVFNVEAIQYKVFGEKLEHHHHHH | not soluble |
| MRHPDFPVPPRIDAFASWEASLRLAFARRGGRTVLASCRHRGPLRVQKALYPEGEGVCHVVLLHPPAGIAGGDVLDIGIELGAEAHAVLTTPGATKWYKSPGRTAMQQVAIRLDAGARLDWLPQENIVFNQARPVIDLTLDLAPGAAAIGWDITMLGRHAAGESWQEGRIAMHTRLRCEGQPLWIESTAFDAQSPVLGATTGMAGFHVVGTLWAVGAGATEALAETLAEQLPYRDDLRAGVTCLTQDAPGRPSVLLLRVLARRPEDARALLSQTWLALREPIHGVAGRPLRLWATLEHHHHHH | not soluble |
